From the supplement of paper PMC9233669
Variants at the floor of the assay were thinned out.

What was measured:
biotinyl-Phe-oxazolone = experiment: self-aminoacylation, catalytic enhancement (BFO) (fold over background); higher = more active; k-Seq, kA / k0A0; sequences stand for … in GGGAAUGGAUCCACAUCUACGAAUUC…UUCACUGCAGACUUGACGAAGCUG
Summary of the method: (§1)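 The uncatalyzed rate is the low-activity peak of a bimodal Gaussian fit, and catalytic enhancement is median kA divided by it. The kA values came from pseudo-first-order fits, with 1000 bootstraps, of per-sequence fraction reacted measured by streptavidin capture, triplicate qPCR and Illumina sequencing. Mutagenized RNA pools with a 21-nt variable region (0.43 μM) were reacted with each biotinyl-aminoacyl-oxazolone at 2–1250 μM in 50 μL HEPES/NaCl/KCl/MgCl2/CaCl2 buffer with 5% acetonitrile, pH 6.9–7.0, for 90 minutes at room temperature.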

biotinyl-Ile-oxazolone = experiment: self-aminoacylation, catalytic enhancement (BIO) (fold over background); higher = more active; k-Seq, kA / k0A0; sequences stand for … in GGGAAUGGAUCCACAUCUACGAAUUC…UUCACUGCAGACUUGACGAAGCUG
Summary of the method: as §1

biotinyl-Val-oxazolone = experiment: self-aminoacylation, catalytic enhancement (BVO) (fold over background); higher = more active; k-Seq, kA / k0A0; sequences stand for … in GGGAAUGGAUCCACAUCUACGAAUUC…UUCACUGCAGACUUGACGAAGCUG
Summary of the method: as §1

biotinyl-Leu-oxazolone = experiment: self-aminoacylation, catalytic enhancement (BLO) (fold over background); higher = more active; k-Seq, kA / k0A0; sequences stand for … in GGGAAUGGAUCCACAUCUACGAAUUC…UUCACUGCAGACUUGACGAAGCUG
Summary of the method: as §1

biotinyl-Met-oxazolone = experiment: self-aminoacylation, catalytic enhancement (BMO) (fold over background); higher = more active; k-Seq, kA / k0A0; sequences stand for … in GGGAAUGGAUCCACAUCUACGAAUUC…UUCACUGCAGACUUGACGAAGCUG
Summary of the method: as §1

biotinyl-Trp-oxazolone = experiment: self-aminoacylation, catalytic enhancement (BWO) (fold over background); higher = more active; k-Seq, kA / k0A0; sequences stand for … in GGGAAUGGAUCCACAUCUACGAAUUC…UUCACUGCAGACUUGACGAAGCUG
Summary of the method: as §1

| Sequence | self-aminoacylation (biotinyl-Phe-oxazolone) | self-aminoacylation (biotinyl-Ile-oxazolone) | self-aminoacylation (biotinyl-Val-oxazolone) | self-aminoacylation (biotinyl-Leu-oxazolone) | self-aminoacylation (biotinyl-Met-oxazolone) | self-aminoacylation (biotinyl-Trp-oxazolone) |
| --- | --- | --- | --- | --- | --- | --- |
| CCACACUUCAAGCAAACUGUC [Fam1B.1 aminoacylation ribozyme variant] | 0.713 | 0.424 | 0.504 | 0.44 | 0.371 | 0.5 |
| AUGUUUGGUAAUAGUCGCAAG [Fam3.1 aminoacylation ribozyme variant] | 3.16 | 1.92 | 1.51 | 1.84 | 1.79 | 2.15 |
| AUUCAUCUAGGUCAACGGGUG [Fam2.2 aminoacylation ribozyme variant] | 29.6 | 2.6 | 2.61 | 5.32 | 4.08 | 3.23 |
| CUACUUCAAACAAUCGUUAUG [Fam1A.1 aminoacylation ribozyme variant] | 0.899 | 0.683 | 0.627 | 0.523 | 0.48 | 0.59 |
| ACGUUUGCUAAUAGUCUCAAG [Fam3.1 aminoacylation ribozyme variant] | 3.28 | 1.11 | 1.13 | 1.02 | 0.921 | 2.15 |
| AUUACCCUAGUCAUCGCGUGA [Fam2.1 aminoacylation ribozyme variant] | 54.5 | 4.26 | 5.09 | 9.91 | 8.29 | 10.1 |
| CCACACUUCCAGCAACCGGUC [Fam1B.1 aminoacylation ribozyme variant] | 0.744 | 1.15 | 1.34 | 0.925 | 0.879 | 1.14 |
| CUACUUCAAACAACCGGUAUG [Fam1A.1 aminoacylation ribozyme variant] | 0.739 | 0.785 | 0.805 | 0.803 | 0.707 | 0.873 |
| AUUACCCUGGUCAUCGGGUGA [Fam2.1 aminoacylation ribozyme variant] | 711 | 47 | 60.9 | 133 | 122 | 140 |
| CUACUUCCAACAAUGGGUCUG [Fam1A.1 aminoacylation ribozyme variant] | 0.635 | 0.951 | 0.835 | 0.795 | 0.932 | 0.789 |
| AUUCCCCUACGUCAUCGGGUG [Fam2.2 aminoacylation ribozyme variant] | 127 | 10.9 | 11 | 20.9 | 16 | 16 |
| CCACACUUCCAGCAAUCGCUC [Fam1B.1 aminoacylation ribozyme variant] | 1.22 | 1.69 | 1.83 | 1.35 | 1.54 | 1.59 |
| AUUACCCUAGUCACCGAGUGA [Fam2.1 aminoacylation ribozyme variant] | 23.1 | 2.89 | 3.27 | 6.48 | 6.48 | 7.33 |
| CUACUUCAAACGAUCGGUCUA [Fam1A.1 aminoacylation ribozyme variant] | 0.678 | 0.757 | 0.731 | 0.615 | 0.744 | 0.594 |
| AUUCCCCUGGACAUCGAGUGA [Fam2.1 aminoacylation ribozyme variant] | 35.4 | 3.41 | 3.45 | 6.77 | 6 | 7.13 |
| AUUCCCAUAGGUCAUCGGGUG [Fam2.2 aminoacylation ribozyme variant] | 185 | 15.6 | 13.4 | 32.7 | 23.9 | 22 |
| CCACAAUUCAGGCAAUCGGUC [Fam1B.1 aminoacylation ribozyme variant] | 1.29 | 1.47 | 1.42 | 1.46 | 1.37 | 0.94 |
| AUUCAUCUAGGUCAUCGUGUG [Fam2.2 aminoacylation ribozyme variant] | 4.8 | 1.05 | 0.915 | 1.23 | 1.16 | 0.882 |
| AUUCGCCUAGGUCAUCUGGUG [Fam2.2 aminoacylation ribozyme variant] | 19.3 | 2.24 | 2.23 | 3.87 | 2.96 | 3.3 |
| CCACAAUUCAAGCAAUCGAUC [Fam1B.1 aminoacylation ribozyme variant] | 0.898 | 0.742 | 0.888 | 0.685 | 0.699 | 0.675 |
| UUUCACCUAGGCCAUCGGGUG [Fam2.2 aminoacylation ribozyme variant] | 20.8 | 3.27 | 4 | 4.34 | 3.71 | 4.57 |
| AAGUUAGCUAAUAGCCGCAAG [Fam3.1 aminoacylation ribozyme variant] | 1.96 | 1.88 | 1.6 | 1.44 | 0.903 | 2.02 |
| AAGUUUGGUAAUAGUCGCAAU [Fam3.1 aminoacylation ribozyme variant] | 3.13 | 2.02 | 1.62 | 1.8 | 1.65 | 2.14 |
| CCACACUUCAAGGAAUCGGUU [Fam1B.1 aminoacylation ribozyme variant] | 0.969 | 1.34 | 1.57 | 1.43 | 1.39 | 1.16 |
| ACGUUUGCUAACAGUCGCAAG [Fam3.1 aminoacylation ribozyme variant] | 4.28 | 1.5 | 1.29 | 1.97 | 1.53 | 1.94 |
| GCACACUUCAAGUAAUCGGUC [Fam1B.1 aminoacylation ribozyme variant] | 8.6 | 1.89 | 1.7 | 1.77 | 1.88 | 8.15 |

| Sequence | self-aminoacylation (biotinyl-Phe-oxazolone) | self-aminoacylation (biotinyl-Ile-oxazolone) | self-aminoacylation (biotinyl-Val-oxazolone) | self-aminoacylation (biotinyl-Leu-oxazolone) | self-aminoacylation (biotinyl-Met-oxazolone) | self-aminoacylation (biotinyl-Trp-oxazolone) |
| --- | --- | --- | --- | --- | --- | --- |
| CAACACUUCAAGCAAUCGGUU [Fam1B.1 aminoacylation ribozyme variant] | 6.96 | 1.84 | 1.52 | 1.76 | 1.64 | 4.96 |
| AUUCACCUAUGCCAUCGGGUG [Fam2.2 aminoacylation ribozyme variant] | 18.9 | 1.5 | 1.98 | 3.21 | 2.85 | 3.42 |
| AUUCACCCAGGUCAUCGGCUG [Fam2.2 aminoacylation ribozyme variant] | 6.8 | 1.99 | 2 | 1.85 | 1.62 | 1.41 |
| AUUACCCUGGUCAUGGAGUCA [Fam2.1 aminoacylation ribozyme variant] | 0.746 | 0.907 | 1.01 | 0.838 | 0.798 | 0.594 |
| CCACACUUCAAACAAUCGUUC [Fam1B.1 aminoacylation ribozyme variant] | 1.55 | 0.759 | 0.822 | 0.623 | 0.697 | 0.778 |
| AAGUUUGCUAGUAGUCGCAUG [Fam3.1 aminoacylation ribozyme variant] | 0.822 | 0.903 | 0.873 | 0.808 | 0.737 | 1.4 |
| AUUGACCUGGUCAUCGAGUGA [Fam2.1 aminoacylation ribozyme variant] | 8.3 | 3.66 | 4.1 | 7.86 | 6.92 | 9.68 |
| AUUCGCCUAGGUCAUCAGGUG [Fam2.2 aminoacylation ribozyme variant] | 7.29 | 1.48 | 1.53 | 2.02 | 1.97 | 2.53 |
| CUACUGCAAACAAUCGGUCUG [Fam1A.1 aminoacylation ribozyme variant] | 1.08 | 0.804 | 0.844 | 0.776 | 0.769 | 0.77 |
| CCACACUUCAAGCAGGCGGUC [Fam1B.1 aminoacylation ribozyme variant] | 0.771 | 1.86 | 1.54 | 1.07 | 1.24 | 1.77 |
| AUUCACCUAGGUCACCGCGUG [Fam2.2 aminoacylation ribozyme variant] | 85.2 | 7.2 | 6.86 | 18.1 | 12.6 | 10.9 |
| AGUCACCUAGGUCACCGGGUG [Fam2.2 aminoacylation ribozyme variant] | 31.7 | 4.07 | 4.47 | 4.38 | 4.49 | 6.49 |
| AGUCACCUAGGUCAUCGCGUG [Fam2.2 aminoacylation ribozyme variant] | 97 | 8.4 | 9.1 | 18.3 | 14.4 | 14.3 |
| GUUACCCUGGUGAUCGAGUGA [Fam2.1 aminoacylation ribozyme variant] | 34.8 | 3.37 | 3.33 | 7.43 | 6.75 | 8.86 |
| CCACACUUCAAGCAAUCCGCC [Fam1B.1 aminoacylation ribozyme variant] | 0.939 | 0.873 | 1.64 | 1.02 | 1.16 | 0.899 |
| CUUCACCUACGUCAUCGGGUG [Fam2.2 aminoacylation ribozyme variant] | 37.8 | 3.06 | 3.69 | 5.63 | 5.1 | 4.58 |
| GUUACCCUGGUCAUCAAGUGA [Fam2.1 aminoacylation ribozyme variant] | 11 | 2.37 | 2.08 | 3.12 | 3.81 | 4.39 |
| AUUAUCCUGGUCAUCGAGUAA [Fam2.1 aminoacylation ribozyme variant] | 2.69 | 1.43 | 1.39 | 1.85 | 2.03 | 1.08 |
| AUUACCCUGGUCAUCGAGUUA [Fam2.1 aminoacylation ribozyme variant] | 26.4 | 4.08 | 4.86 | 10.3 | 10.8 | 8.28 |
| AUUUACCUAGGUCAUCCGGUG [Fam2.2 aminoacylation ribozyme variant] | 41.8 | 3.68 | 3.81 | 7.4 | 4.7 | 4.6 |
| ACACCCUUCAAGCAAUCGGUC [Fam1B.1 aminoacylation ribozyme variant] | 2.12 | 1.01 | 1.02 | 0.984 | 0.897 | 1.59 |
| CUACUUCAAACAGUCUGUCUG [Fam1A.1 aminoacylation ribozyme variant] | 0.663 | 0.608 | 0.597 | 0.568 | 0.515 | 0.337 |
| AUUUACCUAGGCCAUCGGGUG [Fam2.2 aminoacylation ribozyme variant] | 17.4 | 2.47 | 3.2 | 3.95 | 3.07 | 3.98 |
| CCACACUCCUAGCAAUCGGUC [Fam1B.1 aminoacylation ribozyme variant] | 0.91 | 0.943 | 1.04 | 0.746 | 0.631 | 0.519 |
| CCACACUUCCAGCAAUGGGUC [Fam1B.1 aminoacylation ribozyme variant] | 1.22 | 1.34 | 1.38 | 0.88 | 0.956 | 0.884 |
